Reference: US20180291103A1

What was measured:
[1] = target: PDL1-Fc fusion protein (human PDL1-Fc) (human); assay: SPR, BIAcore X100; PDL1-Fc on CM5 chip, antibody as analyte, 25 C
[2] = target: Mouse PDL1-Fc protein (mouse); assay: ELISA; mouse PDL1-Fc coated at 0.5 µg/well, control group well (row 'blank'), anti-His detection, 405 nm
[3] = target: PDL1-Fc fusion protein (human PDL1-Fc) (human); assay: ELISA; OD on PDL1-Fc divided by OD on Fc protein, control group well (row 'blank')
[4] = target: PDL1-Fc fusion protein (human PDL1-Fc) (human); assay: ELISA; PDL1-Fc coated, control group well (row 'blank'), anti-His detection, 405 nm
Fc protein = assay: ELISA; Fc protein coated, control group well (row 'blank'), anti-His detection, 405 nm

PDL1-Fc fusion protein (human PDL1-Fc) (human), sequence (chain, as listed by the source limits assumed): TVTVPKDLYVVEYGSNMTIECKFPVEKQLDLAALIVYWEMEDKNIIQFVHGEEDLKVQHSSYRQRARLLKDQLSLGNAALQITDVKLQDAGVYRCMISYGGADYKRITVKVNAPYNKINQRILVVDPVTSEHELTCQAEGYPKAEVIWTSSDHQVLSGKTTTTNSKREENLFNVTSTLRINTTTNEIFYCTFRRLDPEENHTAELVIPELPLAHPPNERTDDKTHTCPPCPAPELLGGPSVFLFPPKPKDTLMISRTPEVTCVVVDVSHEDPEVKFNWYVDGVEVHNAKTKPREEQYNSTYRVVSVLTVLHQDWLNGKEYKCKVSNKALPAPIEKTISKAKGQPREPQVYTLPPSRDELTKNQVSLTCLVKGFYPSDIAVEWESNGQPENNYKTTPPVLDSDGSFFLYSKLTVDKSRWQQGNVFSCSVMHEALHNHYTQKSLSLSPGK
Mouse PDL1-Fc protein (mouse), sequence (chain, as listed by the source limits assumed): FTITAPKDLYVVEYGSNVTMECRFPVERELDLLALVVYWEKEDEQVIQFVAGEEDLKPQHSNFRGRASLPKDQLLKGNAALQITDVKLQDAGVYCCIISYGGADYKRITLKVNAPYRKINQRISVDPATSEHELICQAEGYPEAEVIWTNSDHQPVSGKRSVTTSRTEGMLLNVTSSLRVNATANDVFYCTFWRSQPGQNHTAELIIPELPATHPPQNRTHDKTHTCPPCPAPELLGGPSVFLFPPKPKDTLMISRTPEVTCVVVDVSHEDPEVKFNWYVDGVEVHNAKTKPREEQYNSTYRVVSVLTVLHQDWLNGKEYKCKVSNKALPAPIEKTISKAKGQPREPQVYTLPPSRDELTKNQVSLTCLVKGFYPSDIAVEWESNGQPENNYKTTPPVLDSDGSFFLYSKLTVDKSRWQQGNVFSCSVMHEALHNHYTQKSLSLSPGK

Kd [1] | OD (against mouse PDL1) [2] | OD (PDL1/Fc) [3] | OD (against PDL1) [4] | OD (against Fc) (Fc protein) | Substance
0.135 nM | – | – | – | – | 243.55 (anti-PDL1 antibody of Roche)
– | 0.096 OD | 0.75 | 0.054 OD | 0.072 OD | control single domain antibody against other unrelated target (control group of the ELISA; table row 'blank') (VHH)
